B1: TPR t1 (parent)
chain: GACCAAUCUGCCCUCAGAGCUCGAGAACAUCUUCGGAUGCAGAGGAGGCAGGCUUCGGUGGCGCGAUAGCGCCAACGUCCUCAACCUCCAAUGCAUCCCACCACAUGAUGAUGCCUGAAGAGCCUUGGUUUUUUG

Variants of: B1
Assay: polymerase ribozyme fitness, log enrichment relative to wild type (log ratio); higher = more active; in vitro selection for triplet polymerase activity
How it was run: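 Only genotypes with ≥10 input reads and ≥1 read per output were kept after Illumina sequencing of input and output libraries. These libraries were PCR-built, transcribed mutants of each subunit of a heterodimeric triplet polymerase ribozyme, each put through one triplicate in vitro selection round with frozen incubation at −7 °C, gel excision of extended constructs, streptavidin-bead capture and RT-PCR. Fitness is a logarithmic ratio of genotype enrichment to wild-type enrichment, from inverse-variance-weighted replicate averages, with the logarithm in base 2.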

Variant | polymerase ribozyme fitness (log ratio)
C4G C12A C15A C73U C94A C99U G110C | -7.24
C4A A37U C72U U78A | -1.52
C4G C12U G60U C89G A111U | -5.57
C4A C13A U54G C56A G77A | -4.73
C4U C13G C56G C72U C73A | -5.32
C4G C12U C56A C70U A111C U126A | -3.03
C4U G69U | -0.399
C4U G69A | -2.91
A5C G44A A111U | -5.64
C4A A119U | -1.66
A5G C13A G61A | -1.98
C3U G19A C53G U87A C124A | -1.53
C3U G77A C94G | -1.2
A5G U38G G48C G69U C79A | -2.33
C4A C15U G51A C82G C123U | -5.31
A5C U112G U130C | -0.277
C4G G110U | -2.64
C4G U7C C56U G60U C101A | -6.75
A5G U54C G69U A118G U129A | -1.19
C4U C12U C13U G69C C124G | -0.455
A5C C53G U92G G117C U129C U133C | -5.53

Variant | polymerase ribozyme fitness (log ratio)
A5C A24U | -5.29
C4G U9A U78C U87G C104A C123U | -2.05
C4A C13U | -1.41
A5C A118U U133A | -1.14
C3U U78C U87G | -0.313
A5G C85U G113U G122U | -3.92
C3U U14A | -2.47
C3U G93C | -1.09
C4G G42A | -3.06
C4A U130G | -1.85
C4A A46C C64U C114A C124A U131G | -3.27
C4G C79U C104U | -1.62
C3U U112A | 0.197
C4G A5U U55C G113A | -4.56
C4U U59A | -0.304
A5G G52U U92C C114G | -5.18
C4U C13A A26U U55G C62U | -4.16
A5G U54C G69C A118G U129A | -2.84
C4G A18U | -4.14
C3U C73G A83G | -2.1
C4U U59A C62A A100C U106A C124G | -0.734

Variant | polymerase ribozyme fitness (log ratio)
C4A U7G G69C A90C U112C C123U | -3.35
A5C U38G U96C C104U | -2.11
C4U C8G G36U U38A G44U C124A | -5.08
A5G G51A A84C C89U U106A U112C | -2.68
A5C A18G | -4.19
C4G G44U C88A C124A | -1.23
C4G C64U C115A C123A | -3.09
A5G C12A U59C | 0.0118
C4U U109A | -5.02
C4A A16U C72U A95C | -3.63
A5G C8G G47A G69U C80G | -3.96
C4A A24G G48U G60A | -4.54
C4A A16G U54G C101A U112A A119G | -0.726
C4A C11U G69U C97G | -3.61
C4U C11G C49U G51A C72U C80U C94G | -1.9
A5C G117C | -3.15
C4G C8U C12A G42A G71A U106A U112G | -4.39
C4U G71U | -0.506
A5C G19A C89A C124G | -1.76
C4A G113U | -3.74
C4U G60U | -0.43

Variant | polymerase ribozyme fitness (log ratio)
A5G G48U G69A C89U C98U A121G | -3.81
A5G G52C C70G C82U | -3.85
C4A C73G | -2.98
A5C C72U C82G U87A C123G | -3.15
A5G A103C C104A | -3.08
A5G C11U G48U G69A U131C | -3.72
C4U A18G | -3.62
C4U G39U G71U G117A U133A | -3.6
C4G G61C C82G C123U | -3.08
C4A A6C A46C C49A C70A C72G A84C A119U C123A U126G | -6.91
C4U C34A A90C C114G G135A | -5.15
C4G G57A G58C A95C G113U U125C | -6.6
C4U G63U C124G | 0.825
C4A C11G G60A C114G | -5.08
C3U G45A G48U G60A | -1.92
C4G A18C C22U C72G G93U U109C G117C | -5.69
C4G G44U U96A A100U | -3.73
C4G G63A U106G A118G C123G | -2.77
C4A A29G C31G A105G A108U A111C C115G C123A | -6.34
A5C G10A C34A G63U C123U | -4.02
C4G U9A C62G U92A A95G U112C G113A | -5.53
